According to patent publication US20220096653A1, “CONJUGATE COMPRISING LIGAND AND CEACAM5 ANTIBODY FAB FRAGMENT” (ASTELLAS PHARMA INC., priority 2019, published 2022):

Experiments:
[1] = design: species or system mice (BALB/c nu/nu); conditions: mouse, in vivo
Experimental: (§3) A Gd-labeled conjugate of the conjugate containing a peptide linker produced in one of the above Examples was administered from the tail vein of the tumor-bearing mice so that the protein mass was 0.02 mg (100 μL) per animal. As the tumor-bearing mice used in the present Example, mice (BALB/c nu/nu) that were in a tumor-bearing state brought about by transplanting human breast cancer cell line MDA-MB-468 (ATCC(registered trademark); HTB-132) at 5.0×10^6 cells/mouse subcutaneously on the back before administration of the sample were used. 24 hours after administration of the sample, the mice were sacrificed, the kidneys and the tumor were removed, and the amounts of Gd in the kidneys and in the tumor were measured using ICP-MS. The present test was carried out in 3 cases in each group, and the mean value of the 3 cases was calculated. The amount of Gd contained per kidney after administration was shown as a percentage of the amount of Gd administered (% of dose/tissue), and the amount of Gd contained per g of tumor tissue was shown as a percentage of the total amount of Gd administered (% of dose/g).

[2] = design: species or system mice (BALB/c or BALB/c nu/nu); conditions: mouse, in vivo
Experimental: A Gd-labeled conjugate of the conjugate containing a peptide linker produced in one of the above Examples was administered from the tail vein of mice (BALB/c or BALB/c nu/nu) so that the protein mass was 0.02 mg (100 μL) per animal. After about 24 hours, the mice were sacrificed and the kidneys were removed, and the amount of Gd in the kidneys was measured using ICP-MS. The present test was carried out in 3 cases in each group, the mean value of the 3 cases was calculated, and the amount of Gd contained per kidney after administration was shown as a percentage (% of dose/tissue) of the total amount of Gd administered.
Based on the amount of Gd contained in the kidneys of the control conjugate, the proportion of decrease in the amount of Gd contained in the kidneys of each of the conjugates having a peptide linker was determined.

[3] = molecular target: human cancer-specific MUC1 peptide; assay: ELISA binding activity of anti-human MUC1 antibody Fab^5 fragment conjugates (Example 6-1); conditions: each conjugate run in duplicate; Table 52; read-out: EC50
Experimental: (§1) Each anti-human MUC1 antibody Fab^5 fragment conjugate prepared by the method of Example 5 was subjected to ELISA to evaluate the binding activity thereof to human cancer-specific MUC1. In the present test, 20×PBS/Tween 20 Buffer (Thermo Fisher Scientific Inc., 28352) diluted 20-fold with distilled water was used as a wash liquid. In addition, for bovine serum albumin (BSA) used in the present test, 30% Bovine Serum Albumin solution (Sigma-Aldrich, Inc., A9576-50ML) was added in an appropriate proportion for use. A human cancer-specific MUC1 peptide (PTL 1) at 0.5 μmol/L was added to a Nunc MaxiSorp White 384 plate (Nunc, 460372) at 30 μL per well, and the plate was incubated overnight at 4° C. for immobilization. The MUC1 peptide was removed by reverse centrifugation, and then blocking was carried out by adding a PBS/Tween 20 buffer containing 5.0% BSA. Thereafter, the blocking solution was removed by reverse centrifugation, a solution of each anti-human MUC1 antibody Fab^5 fragment conjugate (Ex-No. 104, 108, or 112) described above at about 10000 ng/mL was diluted in 14 steps by 3-fold dilution using a PBS/Tween 20 buffer containing 1.0% BSA, and 30 μL was added per well and incubated at room temperature for 60 minutes. The plate was washed 3 times with a PBS/Tween 20 buffer, and Horseradish Peroxidase-labeled goat anti-human IgK antibody (Southern Biotechnology Associates, Inc.) diluted 10000-fold using a PBS/Tween 20 buffer containing 5.0% BSA was added at 30 μL per well and incubated at room temperature for 30 minutes. The plate was washed 3 times with a PBS/Tween 20 buffer, and ECL Prime Western Blotting DETECTION Reagent (GE Healthcare, RPN2232) as a substrate was added at 30 μL per well. The substrate was incubated at room temperature for 15 minutes, and then a signal value thereof was measured using an Envision counter (PerkinElmer, Inc.).
(§2) The test for each antibody was carried out in duplicate, and the EC50 value was calculated using a 4-parameter logistic curve model.

[4] = molecular target: human cancer-specific MUC1 peptide (Homo sapiens, UniProt P15941); assay: ELISA binding activity of anti-human MUC1 antibody Fab^5 fragment conjugates (Example 6-2); conditions: each conjugate run in duplicate; Table 54; read-out: EC50
Experimental: as §1, with “101-113)” for “104, 108, or 112)”
as §2

[5] = test system: human breast cancer cell line MDA-MB-468; assay: Amount of tumor accumulation of Gd-labeled Fab^5 conjugates, MDA-MB-468 tumor-bearing mice (Example 8); conditions: control conjugate Ex-No. 108, mean for 2 runs, 24 hours
Experimental: as §3

Sequence of human cancer-specific MUC1 peptide (as listed by the source): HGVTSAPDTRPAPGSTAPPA

B1: Ex-No 108 (conjugate)
heavy: QVQLVQSGAEVKKPGASVKVSCKASGYTFTNYGLSWVRQAPGQGLEWMGENHPGSGIIYHNEKFRGRVTLTADRSTSTAYMELSSLRSEDTAVYYCARSSGTRGFDYWGQGTLVTVSSASTKGPSVFPLAPSSKSTSGGTAALGCLVKDYFPEPVTVSWNSGALTSGVHTFPAVLQSSGLYSLSSVVTVPSSSLGTQTYICNVNHKPSNTKVDKKVEPKSCD
light: DVVMTQTPLSLSVTPGQPASISCRSSQSIVHSNGNTYLEWYLQKPGQSPQLLIYRVSNRFSGVPDRFSGSGSGTDFTLKISRVEAEDVGVYYCFQGSHGPWTFGQGTKLEIKRTVAAPSVFIFPPSDEQLKSGTASVVCLLNNFYPREAKVQWKVDNALQSGNSQESVTEQDSKDSTYSLSSTLTLSKADYEKHKVYACEVTHQGLSSPVTKSFNRGEC
modifications: non-natural residues
Renal residual amount Mean [1]: 34.67 % of dose/tissue | Renal residual amount (normal mice) Mean [2]: 33.00 % of dose/tissue | EC50 [3]: 0.07 nM | EC50 [4]: 0.07 nM | Amount of tumor accumulation Mean [5]: 0.92 % of dose/g
